Experimental data as given in the FLAb antibody collection (doi:10.7554/elife.23156).

B1: scFv; the commonest letter at each place (parent)
chain 1: EVKLDETGGGLVQPGRPMKLSCVASGFTFSDYWMNWVRQSPEKGLEWVAQIRNKPYNYETYYSDSVKGRFTISRDDSKSSVYLQMNNLRVEDMGIYYCTGSYYGMDYWGQGTSVTVS
chain 2: DVVMTQTPLSLPVSLGDQASISCRSSQSLVHSNGNTYLRWYLQKPGQSPKVLIYKVSNRFSGVPDRFSGSGSGTDFTLKISRVEAEDLGVYFCSQSTHVPWTFGGGTKLEIK

Legend:
fluorescein = variants of: B1; assay: Kd (Tite-Seq); details: with fluorescein; format: scFv 4-4-20, heavy + light
[1] = variants of: B1; assay: yeast surface expression (ratio to wild type); higher = more expressed; details: format: scFv 4-4-20, heavy + light

Kd (fluorescein)	Variant	yeast surface expression [1]
≥ 10 µM	chain 1 W33K M34T	0.893
≥ 10 µM	chain 1 S30H N35D	0.828
≥ 10 µM	chain 1 S30E W33K	0.771
≥ 10 µM	chain 1 F29M W33V	0.982
0.228 µM	chain 1 D106E W108I	0.866
≥ 10 µM	chain 1 G104L D106G	0.169
0.105 µM	chain 1 S30R W33F M34V	0.767
≥ 10 µM	chain 1 T28C M34S	0.611
≥ 10 µM	chain 1 D31T V37S	0.269
≥ 10 µM	chain 1 G100F Y107T	0.842
≥ 10 µM	chain 1 Y32R M34W V37M	0.728
≥ 10 µM	chain 1 D106Y G109K	0.136
≥ 10 µM	chain 1 Y102G G104L	0.816
≥ 10 µM	chain 1 G104I W108H	0.102
≥ 10 µM	chain 1 Y32H N35Q	0.811
0.004 µM	chain 1 S30H W36F	0.728
0.000763 µM	chain 1 Y103F	1.06
≥ 10 µM	chain 1 W33Q	1.01
≥ 10 µM	chain 1 W33C W36G	1.12
≥ 10 µM	chain 1 G100M G109W	0.185
≥ 10 µM	chain 1 S101Y Y103N D106L	0.957
≥ 10 µM	chain 1 W36P V37Y	0.75
≥ 10 µM	chain 1 W36K V37H	0.773
≥ 10 µM	chain 1 M34H V37W	0.602

Kd (fluorescein)	Variant	yeast surface expression [1]
0.021 µM	chain 1 S30C W36G	0.208
≥ 10 µM	chain 1 Y32C M34K	1.04
≥ 10 µM	chain 1 Y103N D106N W108T	0.736
0.00785 µM	chain 1 Y102T Y103W	0.819
0.0245 µM	chain 1 Y102T Y103C	0.784
≥ 10 µM	chain 1 S101I W108E	0.21
≥ 10 µM	chain 1 T28R W33L	0.935
≥ 10 µM	chain 1 Y32E N35S	0.87
≥ 10 µM	chain 1 G100W S101P	0.197
≥ 10 µM	chain 1 Y32W W33F	0.941
≥ 10 µM	chain 1 M105T Y107N	0.778
≥ 10 µM	chain 1 M105T Y107D	0.467
≥ 10 µM	chain 1 Y103W W108S	0.526
≥ 10 µM	chain 1 M34A N35I	0.267
≥ 10 µM	chain 1 W33V N35Q	0.772
≥ 10 µM	chain 1 F29C D31M	0.669
≥ 10 µM	chain 1 S101L Y102A	0.514
≥ 10 µM	chain 1 W33N N35T	0.979
≥ 10 µM	chain 1 Y32N M34G	0.608
6.96 µM	chain 1 S30H M34C	0.623
≥ 10 µM	chain 1 S30I M34N	0.512
≥ 10 µM	chain 1 S30I M34P	0.36
0.0113 µM	chain 1 S30I M34V	0.753
≥ 10 µM	chain 1 F29L W33D W36S	0.585

Kd (fluorescein)	Variant	yeast surface expression [1]
≥ 10 µM	chain 1 M105Q D106Q	1.01
0.0102 µM	chain 1 N35G	0.989
0.228 µM	chain 1 N35K	0.806
≥ 10 µM	chain 1 N35Q	0.814
0.00444 µM	chain 1 D31I Y32A	0.779
≥ 10 µM	chain 1 G104T	0.599
≥ 10 µM	chain 1 G104F	0.597
≥ 10 µM	chain 1 G104R	0.626
≥ 10 µM	chain 1 G100E D106H	0.289
≥ 10 µM	chain 1 G100E D106M	0.17
≥ 10 µM	chain 1 S101Y Y102W M105T	0.507
0.0158 µM	chain 1 W108S	0.51
0.382 µM	chain 1 D31A V37K	0.623
0.0729 µM	chain 1 S30M Y32H	0.872
≥ 10 µM	chain 1 G104T W108F	0.329
5.96 µM	chain 1 S30C D31F	0.592
≥ 10 µM	chain 1 G104K D106H	0.594
0.00166 µM	chain 1 D31G	0.887
≥ 10 µM	chain 1 D106A G109H	0.448
0.00468 µM	chain 1 T28N D31C	0.826
≥ 10 µM	chain 1 T28A N35Y W36V	0.297
≥ 10 µM	chain 1 S101Y D106K	0.117
≥ 10 µM	chain 1 D31T W33L	0.518
≥ 10 µM	chain 1 D31T W33N	0.661

Kd (fluorescein)	Variant	yeast surface expression [1]
≥ 10 µM	chain 1 G100D Y102S	0.289
9.5 µM	chain 1 G100L G109S	0.566
≥ 10 µM	chain 1 F29G W33K	0.65
≥ 10 µM	chain 1 F29T M34S	0.649
≥ 10 µM	chain 1 F29C N35K	1.18
1.91 µM	chain 1 D106A Y107F	0.508
0.00175 µM	chain 1 S30H D31H	0.746
≥ 10 µM	chain 1 S30H D31I	0.573
≥ 10 µM	chain 1 M34D N35Q	1.78
≥ 10 µM	chain 1 Y103E D106P	0.413
≥ 10 µM	chain 1 D31K W36T	0.343
≥ 10 µM	chain 1 T28G Y32M	1.24
≥ 10 µM	chain 1 G104V D106P	0.232
0.0107 µM	chain 1 M34I W36F	0.811
8.13 µM	chain 1 M105I Y107Q	0.872
5.66 µM	chain 1 Y32I M34F	0.871
≥ 10 µM	chain 1 Y32I M34A	0.821
≥ 10 µM	chain 1 G104R Y107W	0.257
≥ 10 µM	chain 1 F29D W36H	0.505
≥ 10 µM	chain 1 W33F W36L	0.594
≥ 10 µM	chain 1 D31Q N35L	0.418
≥ 10 µM	chain 1 G100H S101G	0.649
0.0353 µM	chain 1 M34R V37W	3.88
≥ 10 µM	chain 1 M105S D106N	0.443

Kd (fluorescein)	Variant	yeast surface expression [1]
0.0507 µM	chain 1 D31L V37F	0.743
≥ 10 µM	chain 1 Y102E D106S	1.01
≥ 10 µM	chain 1 G104E M105V	0.886
≥ 10 µM	chain 1 G109P	0.312
≥ 10 µM	chain 1 G109I	0.269
≥ 10 µM	chain 1 G109V	0.34
≥ 10 µM	chain 1 G104A M105T	0.685
≥ 10 µM	chain 1 G100D G104A	0.116
0.0335 µM	chain 1 G100S Y102K	0.868
0.00606 µM	chain 1 G100C S101A	0.711
≥ 10 µM	chain 1 W36M V37W	0.496
≥ 10 µM	chain 1 G100W S101P D106M	0.186
≥ 10 µM	chain 1 W36G V37N	0.597
1.33 µM	chain 1 W36I	0.756
≥ 10 µM	chain 1 W36E	0.765
≥ 10 µM	chain 1 W36V	0.715
≥ 10 µM	chain 1 D31G N35A	0.664
≥ 10 µM	chain 1 S101H Y103Q	0.871
≥ 10 µM	chain 1 Y102Q W108Q	0.508
≥ 10 µM	chain 1 G104V M105R G109W	0.425
